The source of these data is the RNAGym collection of RNA variant scans (doi:10.1073/pnas.2313332121).

Fewer inactive variants are shown than the library holds.

B1: TPR 5TU (parent)
chain: GGAUCUUCUCGAUCUAACAAAAAAGACAAAUCUGCCACAAAGCUUGAGAGCAUCUUCGGAUGCAGAGGCGGCAGCCUUCGGUGGCGCGAUAGCGCCAACGUUCUCAACUAUGACACGCAAAACGCGUGCUCCGUUGAAUGGAGUUUAUCAUG

In this series the parent is B1. As to the kind of experiment: polymerase ribozyme fitness, log enrichment relative to wild type (log ratio); higher = more active; in vitro selection for triplet polymerase activity. An outline of the steps: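 A single round of triplicate in vitro selection, including frozen incubation at −7 °C, was applied to PCR-built, transcribed mutant libraries of each subunit of a heterodimeric triplet polymerase ribozyme. Illumina sequencing of input and output libraries retained genotypes with ≥10 input reads and ≥1 read per output. Fitness is the base-2 logarithm of genotype enrichment divided by wild-type enrichment, from inverse-variance-weighted replicate averages.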
For GGAUCUUCUCGAUUUAACAAAAAAGACAAAUCUGCAACAAAGCUUGAGAGCAUCUUCGGAUGCAGAGGCGGCGGCCUUCGGUAGCACGAUAGCGCCAACGUUCUCAACUAUGACACGCAAAACGCGUGCUCCGUUGAAUGGAGUUUAUCAUG [C14U C36A A73G G83A G86A], the “polymerase ribozyme fitness (log ratio)” value is at most -4.2.

For the variant GGAUCUUCUCGAUUUAACAAAAAAGACAAAUCUGCCACAAAGCUUGAGAGCAUCUUCGGAUGCAGAGGCGGCAGCCUUCGGUGCCGCGAUAGCGCCAACGUUCUCAACUAUGACACGCAAAGCGCGUGCUCCGUUAAAUGGAGUUUAUCAUG [C14U G84C A122G G136A], the “polymerase ribozyme fitness (log ratio)” value is -3.51.

As to GGAUCUUCUCGAUUUAACAAAAAAGACAAAUCUGCGACAAAGCUUGAGAGCAUCUUCGGAUGCAGAGGCGUCAGCCUUCGGUGGCGCGAUAGCGCCAACGUUCUCAACUAUGACACGCAAAUCUCGUGCUCCGUUGAAUGGAGUUUAUCAUG [C14U C36G G71U A122U G124U], the “polymerase ribozyme fitness (log ratio)” value was at most -4.2.

Consider GGAUCUUCUCGAUUUAACAAAAAAGACAAAUCUGCCACAAAGCAUGAGAGCAUCUUACGAUGCAGAGGCGGCUGCCUUCGGUCGCGCGAUUGCGCCAACGUUCUCAACUAUGACACGCAAAACGCGUGCUCCGUUGAAUGGAGUUUAUCAUG [C14U U44A C57A G58C A73U G83C A91U], for which the “polymerase ribozyme fitness (log ratio)” value is at most -4.2.

Take GGAUCUUCUCGAUUUAACAAAAAAGACAAAUCUGCCACAAAGCUUGAGAGCAUCUUCGGAUGCAGAGGCGGCAGCCUUCGGUGGCGCGAUACCGCCAACGUUCUCAACUAUGACACGCAAAACGCGUGCUCCGUUGAAUGGAGUUUAUCAUG [C14U G92C]: the “polymerase ribozyme fitness (log ratio)” value was -1.88.

Take GGAUCUUCUCGAUUUAACAAAAAAGACAAAUCUGCCACAAAACUUGAGAGCAUCUUCGAAUGCAGAGGCGGCAGCCUUCGGUGGCGAGAUAGCGCCAACGUUCUCAACUAUGACACGCAAAACGCGUGCUCCGUUGAAUGGAGUUUAUCAUG [C14U G42A G59A C87A]: the “polymerase ribozyme fitness (log ratio)” value was at most -4.2.

Consider GGAUCUUCUCGAUUUAACAAAAAAGACAAAUCUGCCACAAAGCUUGAGAGCAUCUUCGGAUGCAGAGGCGGCAGCCUUCGGUGGCGCGAUAGCGCCAACGUUCUCAACUAUGACACGCAAAAGGCGUGCUCCGUUGAAUGGAGUUUAUCAUG [C14U C123G], for which the “polymerase ribozyme fitness (log ratio)” value was -1.9.

For the variant GGAUCUUCUCGAUUCAACAAAAUAGACAAAUCUGCCACAAUGCUUGAGAGCAUCUUCGGAUGCAGAGGCGGCAGCCUUCGGUGGAGCGAUAGCGCCAACGUUCUCAACUAUGACACGCAAAACUCGUGCUCCGUUGAAUGGAGUUUAUCAUG [C14U U15C A23U A41U C85A G124U], the “polymerase ribozyme fitness (log ratio)” value is at most -4.2.

Consider GGAUCUUCUCGAUUUAACAAAAAAGACAAAUCGGCCACAAAGCUUGAGAGCAUCUUCGCAUGCAGAGGCGGCAGCCUUCGGUGGCGUGAUAGCGCCAACGUUCUCAACUAUGACACGCAAAACUCGUGCUCCGUUGAAUGCAGUUUAUCAUU [C14U U33G G59C C87U G124U G141C G152U], for which the “polymerase ribozyme fitness (log ratio)” value was -4.16.

On to GGAUCUUCUCGAUUUAACAAAAAAGACAAAUCUGCCACAAAGCUUGAGAGCAUCUUCGGAUGCAGAGGCGGCAGCCUUCGGUGGCGCGAUAACGCCAACGUUCUCAACUAUGACAGGCAAAACGCGUGCUCCGUUGAAUGGAGUUUAUCAUG [C14U G92A C116G], for which the “polymerase ribozyme fitness (log ratio)” value was -3.86.

As for GGAUCUUCUCGAUUUAACAAAAAAGACAAAUCUGCCACAAAGCUUGAGAGCAUCUUCGGAUGCAGAGGCGGCAGCCUUCGGUGUCGCGAUAGCGCCAACGUUCUCAACUAUGACACGCAAAACGCGUGCUCCGUUGAAUGGAGUUUAUCAUG [C14U G84U], the “polymerase ribozyme fitness (log ratio)” value was -3.29.

For the variant GGAUCUUCUCGAUUUAACAAAAAAGACAAAUCUGCCACAAAGCUUGAGAGCAUCUUCGGAUGCAGAGGCGGCAGCGUUCGGUGGCGCGAUAGCGCCAACGUUCUCAACUAUGACACGCAAAACGCGUGCUCCGUUGAAUGGAGUUUAUCAUG [C14U C76G], the “polymerase ribozyme fitness (log ratio)” value was at most -4.2.

With GGAUCUUCUCGAUUUAACAAAAAAGACAAAUCUGCCACAAAGCUUGAGAGCAUCUUCGGAUGCAGAGGCGGCAGGCUUCGGUGGCGCGAUAGCGCCAACGGUCUCAACUAUGACACGCAAAACGCGUGCUCCGUAGAAUGGAGUUUAUCAUG [C14U C75G U101G U135A], the “polymerase ribozyme fitness (log ratio)” value is at most -4.2.

For the variant GGAUCUUCUCGAUUUAACAAAAAAGACAAAUCUGCCACAAAGCUUGAGAGCAUCUUCGGAUGCAGAGGCGGCAGCCUUCGUUGUCGCGAUAGCGCCAACGUUCUCAACUAUGACACGCAAAACGCGUGCUCCGUUGAAUGGAGUUUAUCAUG [C14U G81U G84U], the “polymerase ribozyme fitness (log ratio)” value was -2.93.

With GGAUCUUCUCGAUUUAACAAAAAAGACAAAUCUGUCACAAAGCUUGAGAGCAUCUUCGCGUGCAGAGGCGGCAGCCUUCGGUGGUGCGAUAGCGCCAACGUUCACAACUAUGACACGCAUAACGCGUUCUCCGUUGAAUGGAGUUUGUCAUG [C14U C35U G59C A60G C85U U104A A120U G128U A147G], the “polymerase ribozyme fitness (log ratio)” value is at most -4.2.

For the variant GGAUCUUCUCGAUUUAACAAAAAAGACAAAUCUGCCACAAAGCUGGGCAGCAUCUUCGGAUGCAGAGGUGGCAGCGUUCGGUGGCGCGAUAGCGCCAACGUUCUCAACAAUGACACGCAAAACGCGUGCUCCGUUGAAUGGAGUUUAUCAUG [C14U U45G A47G G48C C69U C76G U109A], the “polymerase ribozyme fitness (log ratio)” value is at most -4.2.

Regarding GGAUCUUCUCGAUUUAACAAAAAAGACAAAUCUGCCACAAAGCUUGAGAGUAUCUACGGAUGCAGAGGCGGCAGCCUUCGGUGGCGCGAUAGCGCCAACGUUCUCAACUAUGACACGCGAAACGCGUGCUCCGUUGAAUGGAGUUUAUCAUG [C14U C51U U56A A119G], the “polymerase ribozyme fitness (log ratio)” value was -2.23.

In the case of GGAUCUUCUCGAUUUAACAAAAAAGACAAAUCUGCCACAAAGCUUAAGAGCAUCGUCGGAUGCAGAGGCGGCAGCCUUCGGUGGCGCGAUAGCGCCAACGUUCUCAACUAUGACACGCAAAACGCGUGCUCCGUUGAAUGGAGUUUAUCAUG [C14U G46A U55G], the “polymerase ribozyme fitness (log ratio)” value was -3.69.

Consider GGAUCUUCUCGAUUUAACAAAAAAGACAAAUCUGCCACAAAGCUGGAGAGCAUCUUCGGAUGCAGAGGCGGCAGCCUUCGGUGGCGAGAUAGCGUCAACGUUAUCAACUAUGACACGCAAAACGCGUGCUCCGUUGAAUGGAGUUUAUCAUG [C14U U45G C87A C95U C103A], for which the “polymerase ribozyme fitness (log ratio)” value is -4.17.
